Test results reported in patent US20240368668A1, “SUBSTRATES AND BIOMARKERS OF ADAMTS7” (The Broad Institute, Inc., priority 2021, published 2024).

Target: T1, mouse ADAMTS7 (Mus musculus, UniProt Q68SA9, E373Q)
T1 construct: Full-length mouse Adamts7 1-1857 (Uniprot Q68SA9, WT or E373Q catalytic mutant); expressed in transfected cells; host or cells: Human Coronary Artery Smooth Muscle Cells (HCA-SMC, Lonza), adenovirus 50 MOI
T1 sequence (Q68SA9 221-1657 E373Q): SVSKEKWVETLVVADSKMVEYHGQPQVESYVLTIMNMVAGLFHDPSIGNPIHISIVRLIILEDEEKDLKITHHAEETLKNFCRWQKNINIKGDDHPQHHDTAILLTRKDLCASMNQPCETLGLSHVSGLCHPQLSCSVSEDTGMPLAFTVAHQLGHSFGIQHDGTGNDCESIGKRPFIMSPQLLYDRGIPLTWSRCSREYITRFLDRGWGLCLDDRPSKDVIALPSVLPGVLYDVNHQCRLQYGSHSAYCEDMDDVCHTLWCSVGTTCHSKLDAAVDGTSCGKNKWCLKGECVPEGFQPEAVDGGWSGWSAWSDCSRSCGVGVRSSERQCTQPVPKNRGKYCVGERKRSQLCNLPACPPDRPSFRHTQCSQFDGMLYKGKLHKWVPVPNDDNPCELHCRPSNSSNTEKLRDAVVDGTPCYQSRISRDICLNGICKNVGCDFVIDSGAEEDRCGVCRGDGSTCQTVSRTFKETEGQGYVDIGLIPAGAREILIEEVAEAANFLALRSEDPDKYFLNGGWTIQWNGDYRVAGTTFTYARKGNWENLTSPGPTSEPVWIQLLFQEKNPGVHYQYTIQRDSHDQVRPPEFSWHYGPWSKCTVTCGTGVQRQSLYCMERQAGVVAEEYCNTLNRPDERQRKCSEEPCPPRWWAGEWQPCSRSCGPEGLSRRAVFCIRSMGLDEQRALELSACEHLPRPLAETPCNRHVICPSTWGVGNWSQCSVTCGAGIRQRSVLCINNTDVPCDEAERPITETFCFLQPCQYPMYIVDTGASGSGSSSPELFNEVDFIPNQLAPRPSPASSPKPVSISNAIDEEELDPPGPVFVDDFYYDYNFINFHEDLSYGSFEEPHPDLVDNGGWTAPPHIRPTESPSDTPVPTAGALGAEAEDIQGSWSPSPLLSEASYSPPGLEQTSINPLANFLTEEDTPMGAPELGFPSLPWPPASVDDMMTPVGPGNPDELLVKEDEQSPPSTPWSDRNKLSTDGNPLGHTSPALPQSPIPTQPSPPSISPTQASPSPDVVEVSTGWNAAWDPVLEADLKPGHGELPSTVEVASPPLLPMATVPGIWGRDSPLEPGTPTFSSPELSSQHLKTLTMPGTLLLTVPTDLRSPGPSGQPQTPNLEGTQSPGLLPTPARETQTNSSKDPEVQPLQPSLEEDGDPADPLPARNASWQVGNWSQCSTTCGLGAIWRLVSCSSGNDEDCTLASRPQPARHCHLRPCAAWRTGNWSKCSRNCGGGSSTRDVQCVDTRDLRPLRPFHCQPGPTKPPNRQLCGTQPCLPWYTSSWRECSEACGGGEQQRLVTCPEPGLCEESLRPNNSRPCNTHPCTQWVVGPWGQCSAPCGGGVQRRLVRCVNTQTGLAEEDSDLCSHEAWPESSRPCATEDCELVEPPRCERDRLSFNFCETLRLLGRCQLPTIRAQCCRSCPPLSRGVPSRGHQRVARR
Assay: TMT10 TAILS N-terminomics, SMC2 experiment (process replicates, trypsin/AspN digest)
Assay type: cell-based
Method in brief: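 Full-length mouse ADAMTS7 (WT or E373Q mutant, C-terminal 3xFLAG) or luciferase was transduced via adenovirus, 50 MOI, into HCA-SMC (SMC1, SMC2) or HUVEC. SMC1: pooled media, technical triplicates 400 ug; SMC2: process triplicates 300 ug; HUVEC: process triplicates 200 ug, bFGF2 10 ng/ml.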

[1] = SMC2_TAILS HC, log fold change of N-terminal peptide, Ad-mADAMTS7 EQ over Luc

VIM_276 (YESVAAKNLQ; listed as Homo sapiens)
logFC.mEQ.over.Luc [1]: 0.06

VIM_322 (QVQSLTCEV; listed as Homo sapiens)
logFC.mEQ.over.Luc [1]: −0.10

VIM_433 (LVDTHSKR; listed as Homo sapiens)
logFC.mEQ.over.Luc (log fold change, ADAMTS7 EQ over luciferase): 0.12

ZSCAN4_25 (FQQSQGPAVQR; listed as Homo sapiens)
logFC.mEQ.over.Luc [1]: −0.09
